Article PMC6089081 (Redox Biology, 2018)

Biological target: the molecule itself
Assay: native gel or EMSA

B1: GRPEL2 (natural protein)
chain: STATQRTAGEDCRSEDPPDELGPPLAERALRVKAVKLEKEVQDLTVRYQRAIADCENIRRRTQRCVEDAKIFGIQSFCKDLVEVADILEKTTECISEESEPEDQKLTLEKVFRGLLLLEAKLKSVFAKHGLEKLTPIGDKYDPHEHELICHVPAGVGVQPGTVALVRQDGYKLHGRTIRLARVEVAVESQRRL
In the case of B1, the “stoichiometry N” value is reported as 2.
